Target: T1, Tn5 transposase EK54/MA56/LP372 (Escherichia coli transposon Tn5) (UniProt Q46731)
T1 sequence: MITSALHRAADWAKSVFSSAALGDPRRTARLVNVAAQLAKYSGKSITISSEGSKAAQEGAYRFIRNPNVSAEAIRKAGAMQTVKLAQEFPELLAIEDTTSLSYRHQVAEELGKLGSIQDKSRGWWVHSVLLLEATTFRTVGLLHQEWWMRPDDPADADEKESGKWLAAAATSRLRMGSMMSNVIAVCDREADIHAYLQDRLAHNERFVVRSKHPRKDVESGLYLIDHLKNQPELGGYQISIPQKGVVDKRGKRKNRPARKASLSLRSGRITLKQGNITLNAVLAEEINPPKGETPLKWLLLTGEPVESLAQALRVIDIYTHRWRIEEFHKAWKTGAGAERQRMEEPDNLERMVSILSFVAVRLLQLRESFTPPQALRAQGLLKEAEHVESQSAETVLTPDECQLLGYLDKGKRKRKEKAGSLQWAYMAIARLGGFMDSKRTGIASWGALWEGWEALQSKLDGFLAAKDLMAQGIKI
Settings: pRZTL1 in vitro transposition; Mg acetate 10 mM, K glutamate 0.1 M, 20 C then 37 C; tet-resistance frequency, gel confirmed

AGT (double strand) [Tn5 outside end (OE) wild type]
activity: 0.1 % of cells
